From patent US20240277861A1, “ANTI-HEPATITIS B VIRUS AGENT TARGETING HOST FACTOR LIPG” (PUROTECH BIO, INC., priority 2021, published 2024)
Substitutions are numbered along the chain they refer to.

Columns and labels:
[1] = biological target: T1, full-length form of LIPG (500 amino acids) (Homo sapiens, UniProt Q9Y5X9); test: Pull-down assay of LIPH4 peptides against full-length LIPG; type: binding; settings: culture supernatant of transfected 293T cells, compared with no bait
T1 construct: A pull-down assay was performed on the full-length form of LIPG (500 amino acids); made in house
T1 sequence (Q9Y5X9 21-500): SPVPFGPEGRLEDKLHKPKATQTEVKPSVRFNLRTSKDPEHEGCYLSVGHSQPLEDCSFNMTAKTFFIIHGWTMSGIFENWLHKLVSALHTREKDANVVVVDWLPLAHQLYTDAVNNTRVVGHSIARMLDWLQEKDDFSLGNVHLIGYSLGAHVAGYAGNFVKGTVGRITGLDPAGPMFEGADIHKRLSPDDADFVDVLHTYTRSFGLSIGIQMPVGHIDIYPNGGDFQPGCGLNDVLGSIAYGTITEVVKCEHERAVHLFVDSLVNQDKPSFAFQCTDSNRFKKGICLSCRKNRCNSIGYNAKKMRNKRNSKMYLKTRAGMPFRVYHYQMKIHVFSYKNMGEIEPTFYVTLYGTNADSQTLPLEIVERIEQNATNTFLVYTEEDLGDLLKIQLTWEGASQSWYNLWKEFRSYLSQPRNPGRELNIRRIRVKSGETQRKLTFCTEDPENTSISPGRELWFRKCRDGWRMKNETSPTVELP
Description: Human embryonic kidney 293T cells were cultured in DMEM (1.0 g/l glucose) with L-Gln and Sodium Pyruvate, liquid (Nacalai) supplemented with 10% FCS ([…]). Plating was performed in a 1:2 ratio on 6 cm dishes 24 hours before transfection. Lipofectamine 2000 in a volume of 20 μl was added to 500 μl of Opti-MEM 1 and allowed to stand for 5 minutes at room temperature, and the resulting mixture was gently added to a 6 cm dish containing a mixture of 500 μl of Opti-MEM 1 and 8 μg of a plasmid DNA. The resulting mixture was allowed to stand for 20 minutes at room temperature, and then added to a 6 cm dish containing 293T cells, and the cells were cultured at 37° C. in 5% CO2 for 4 to 6 day.
Resin (Streptavidin MagneSphere Paramagnetic Particles) (Promega) was washed using the MagneSphere Technology Magnetic Separation Stand (tweleve-position). The resin in a volume of 40 μl was added to each 1.5 ml tube, and after removal of the solution, washed three times with 1 ml of PBS. The resin was transferred to new tubes and mixed with 0.5 nmol (109 μl) of LIPG-BioFLAGHis or with 109 μl of PBS as a no bait control, and the resulting mixtures were agitated at 4° C. for 1 hour by rotation on a mini-disk rotor (BIO CRAFT) to allow binding. After removal of the solution, the resin was washed three times with 1 ml of TBST (containing 0.05% Tween 20). The resin was transferred to new tubes, blocked with 1 ml of ELISA BSA buffer (TBS, 0.05%, Tween 20, 1% BSA. Nacalai Tesque, Inc.) at 4° C. for 1 hour, and then washed three times with 1 ml of ELISA BSA buffer. The resin was transferred to new tubes, and 1000 μl of the culture supernatant containing expressed KIgk-LIPH4 was mixed with […] of the resin treated with LIPG-BioFLAGHis or without the bait, and the resulting mixtures were agitated at 4° C. for 1 hour and 30 minutes by rotation on a mini-disk rotor (BIO CRAFT) to allow binding. After removal of the solution, the resin was washed three times with […] of TBST (Tween 20, 0.1%), and the recovered resin was used for Western blotting.
Each resin was mixed with water and LDS sample buffer (4×), 0.2 mM DTT, heated at 70° C. for 10 minutes, and then subjected to SDS-PAGE. SDS-PAGE was performed using 4-12% Bis-Tris gel and NuPAGE MES-SDS electrophoresis buffer (Invitrogen) at 200 V and 400 mA for 35 minutes. After electrophoresis, transfer was performed using Mini Format, 0.2-μm PVDF, Single-application (BIO-RAD) Trans-Blot Turbo. The membrane was blocked with a Blocking One Buffer: TBST (1:9) solution and reacted with an anti-Flag-HRP (Sigma: A8592) diluted 2:3000 in a Blocking One Buffer: TBST (1:9) solution. Detection was performed using ECL (Enhanced ChemiLuminescence) on a ChemiDoc (BIO-RAD).
A pull-down assay was performed on the full-length form of LIPG (500 amino acids) with LIPH4 peptides (FIG. 16).

HBV [2] = test: Anti-HBV activities of LIPG-binding peptides in PXB cells; type: cell-based; settings: for anti-HBV activity (effect to reduce HBV DNA and cccDNA copy numbers): HBV-infected PXB cells
Description: (§1) An infection source medium was prepared by adding the HBV-infected chimeric mouse serum (PhoenixBio), DMSO, and a PEG 8000 solution to the PXB cell culture medium (PhoenixBio) at final concentrations of 5 genome equivalents/cell, 2%, and 4%, respectively. Various synthesized peptides were diluted to different concentrations in this medium, and the resulting media were added individually to PXB cells (PhoenixBio). After the cells were left to stand in a 5% CO2 incubator at 37° C. for 20 to 28 hours, the medium was removed and the wells were washed once with PBS(−). DMSO and one of the various synthesized peptides were added to the PXB cell culture medium at a final concentration of 2% and different concentrations, respectively, and the resulting media were added individually to the PXB cells to perform medium exchange. This medium exchange was performed at 1, 5, and 9 days post infection and samples were collected at 14 days post infection.
(§2) SMI TEST™ M EX-R&D (Medical & Biological Laboratories) was used to extract DNA from the samples. The extracted DNA was used as a template for quantitative PCR of HBV-DNA. For cccDNA detection, the extracted DNA was treated with T5 exonuclease (New England Biolabs), and the resulting DNA was used as a template for quantitative PCR. The T5 exonuclease treatment was performed at 37° C. for 30 minutes, and the DNase was later inactivated by heating at 80° C. for 15 minutes. The following primer set was used for detection.
PXB cells, fresh human liver cells isolated from PXB mice (human hepatocyte chimeric mice), are human liver cells that maintain human liver functions at high levels and allow persistent infection with hepatitis B virus (HBV). Therefore, PXB cells were used to evaluate the anti-HBV activities of LIPG-binding peptides. LIPG-binding peptides were chemically synthesized because they were added extracellularly (Eurofins Genomics K.K.). Clones that had shown excellent results in the studies of Examples 10 and 1 (KIgk-LIPH4-23, KIgk-LIPH4-74, KIgk-LIPH4-15, KIgk-L1l 14-2. KIgk-LIPH14-14. KIgk-LIPH4-87) were selected for chemical synthesis of the peptides. […] Therefore, LIPH4-NTNA and LIPH4-NTNB, which share a common sequence with netrins and consist of 16 amino acids, were also chemically synthesized. The chemically synthesized peptides were dissolved in DMSO for use in HBV assays in PXB cells.
Next, the anti-HBV activity of full-length Netrin-1 was examined in PXB cells. A full-length human recombinant Netrin-1 protein consisting of 604 amino acid residues (molecular weight: 67.5 kDa, SEQ ID NO: 28) was purchased from R&D Systems. United States. A shRNA with the sequence […]ctcgagc[…] TTTTTTG (single underline: terminal sequences for cloning, lowercase letters: hairpin loop sequence) (SEQ ID NO: 64) was used to knock down the Netrin-1 gene.

HBV [3] = test: Anti-HBV activities of LIPG-binding peptides delivered into PXB cells-2 (scFv fusions, 4% PEG); type: cell-based; settings: presence of 4% PEG
Description: as §1, §2
The anti-HBV activities of LIPG-binding peptides delivered into cells were evaluated using PXB cells and anti-ASGR single-chain antibody-LIPG-binding peptide fusions. The anti-HBV activity was evaluated in the presence of 4% PEG. The evaluation of the anti-HBV effect in the presence of PEG is more stringent than under the conditions in Example 18 without the presence of PEG because the HBV-DNA and cccDNA copy numbers are increased in the presence of PEG. Of the fusions prepared in Example 16, 10M-LN4SN, 10M-LN4N, 10M-LLNTSN, and 10M-LLNTSN-S39 were used. According to the timeline shown in FIG. 42A, the anti-HBV activities of the fusions were evaluated using the methods described in “(10-5) Infection experiment using PXB cells” and “(10-6) Quantification of HBV-DNA and cccDNA”.

[4] = PXB cells, Netrin-1 gene knocked down, vs control

Q: For “CPCVNGATRHRPTSLC (LIPH4-16) [KIgk-LIPH4-16]”, which “binding to LIPG in pull-down assay” value [1] is on record?
A: The value was “positive”.

Q: GADLRRGCC (LIPH4-87) [KIgk-LIPH4-87] was tested. Which “binding to LIPG in pull-down assay” value [1] did it give?
A: Its value is “positive”.

Q: Which “binding to LIPG in pull-down assay” value [1] does the source give for IRNVNHSDH (LIPH4-74) [KIgk-LIPH4-74] here?
A: Its value is “positive”.

Q: With “LCECRDVLSCYYITDT (LIPH4-90) [KIgk-LIPH4-90]” as the molecule, how does the “binding to LIPG in pull-down assay” value [1] read?
A: Its value is “positive”.

Q: How did the “anti-HBV activity (effect to reduce HBV DNA and cccDNA copy numbers)” value (HBV [2]) turn out when LNCRHNTAGRHCHYCK (LIPH4-NTNB) was run?
A: Its value is “high anti-HBV activity”.

Q: And the “anti-HBV activity (effect to reduce HBV DNA and cccDNA copy numbers)” value (HBV [2]; listed as polypeptide (12))?
A: Its value is “as strongly as the polypeptides (5) to (10)”.

Q: With LNVGYVFYP (LIPH4-15) [KIgk-LIPH4-15] as the molecule, how does the “binding to LIPG in pull-down assay” value [1] read?
A: Its value is “positive”.

Q: For LVPWLRYAY (LIPH4-12) [KIgk-LIPH4-12], which “binding to LIPG in pull-down assay” value [1] is on record?
A: The value was “positive”.

Q: For “Netrin-1 shRNA: shRNA of SEQ ID NO: 64 used to knock down the Netrin-1 gene (guide CCGGGACTGCGATTCCTACTGCAAGCTCGAGCTTGCAGTAGGAATCGCAGTCTTTTTTG) [reference compound]”, which HBV-DNA copy number (HBV [2]; [4]) is on record?
A: Its HBV-DNA copy number is “remarkably increased”.

Q: And the cccDNA copy number (HBV [2]; [4])?
A: Its cccDNA copy number is “remarkably increased”.

Q: Which “binding to LIPG in pull-down assay” value [1] does the source give for RCRQSWNTM (LIPH4-14) [KIgk-LIPH4-14] here?
A: The value was “positive”.

Q: Which “anti-HBV activity (effect to reduce HBV DNA and cccDNA copy numbers)” value (HBV [2]) does the source give for RKSGGVCLNCRHNTAG (LIPH4-NTNA) here?
A: The value was “as strongly as the polypeptides (5) to (10)”.

Q: For SLYTGFRAH (LIPH4-2) [KIgk-LIPH4-2], which “binding to LIPG in pull-down assay” value [1] is on record?
A: Its value is “positive”.

B1: 10M-LN4SN: fusion of ASGR3-10M scFv, cleavage sequence, LIPH4-N4BP1b, S28, nuclear localization signal (SEQ ID NO: 134) (protein)
chain: RVRRSNCRINTFRDYKDDDDKHHHHHHHPFVIGAGVLGALGTGIGGITTSTQFYYKPAAKRVKLD
modifications: cleavage sequence + LIPH4-N4BP1b + Flag-tag + His-tag + S28 + nuclear localization signal
Q: Which results are given for B1?
A: HBV-DNA copy number (HBV [3]): remarkably reduced; cccDNA copy number (HBV [3]): remarkably reduced

B2: 10M-LLNTSN: fusion of ASGR3-10M scFv, cleavage sequence, LIPH4-LNTNBs, S28, nuclear localization signal (SEQ ID NO: 131) (protein)
chain: B1 chain with S5L, I9H, F12A, R13G
modifications: cleavage sequence + LIPH4-NTNBs + Flag-tag + His-tag + S28 + nuclear localization signal
Q: How did the HBV-DNA copy number (HBV [3]) turn out when B2 was run?
A: Its HBV-DNA copy number is “remarkably reduced”.

Q: What about the cccDNA copy number (HBV [3]) of the same molecule?
A: Its cccDNA copy number is “remarkably reduced”.

B3: 10M-LN4N: fusion of ASGR3-10M scFv, cleavage sequence, LIPH4-N4BP1a, S28, nuclear localization signal (SEQ ID NO: 133) (protein)
chain: RVRRSNCRINTFRTVPIEQKDYKDDDDKHHHHHHHPFVIGAGVLGALGTGIGGITTSTQFYYKPAAKRVKLD
modifications: cleavage sequence + LIPH4-N4BP1a + Flag-tag + His-tag + S28 + nuclear localization signal
Q: B3 was tested. Which HBV-DNA copy number (HBV [3]) did it give?
A: Its HBV-DNA copy number is “remarkably reduced”.

Q: And the cccDNA copy number (HBV [3])?
A: The cccDNA copy number was “remarkably reduced”.
